Measurements reported in US20030157553A1 (published 2003).

Target: T1, phosphorylated β2-adrenergic receptor (agonist-activated) (UniProt P07550 1-413, limits assumed, phosphorylated (sites and kinase not stated for the experiment))
T1 construct: Phosphorylated form of the purified, reconstituted β2AR; also called P-β2AR
Test: agonist affinity shift assay, [125I]iodopindolol displacement by agonist with saturating (1 µM) purified arrestin, P-β2AR
Experimental: Agonist Affinity ShiftAssay—P-β₂AR or β₂AR (10-15 fmol/assay) was incubated in 0.25 ml of 10 mM Tris-HCl, pH 7.4, 100 mM NaCl (buffer A) containing 0.1 mg/ml bovine serum albumin in the presence of 65-75 fmol of [¹²⁵I] iodopindolol (NEN Life Science Products) and the indicated concentrations of arrestins and agonists for 60 min at 22° C. Samples were then cooled on ice and loaded at 4° C. onto 2 ml of Sephadex G-50 columns. Receptor-containing liposomes with bound radioligand were eluted with buffer A (between 0.6 and 1.5 ml), and radioactivity was quantitated in a liquid scintillation counter. Nonspecific binding was determined in the presence of 10 μM alprenolol. All experiments were repeated two to three times, and data are presented as means ±S.D.
It was recently reported that arrestin-receptor complex is similar to G protein-receptor complex in two respects: agonists have higher affinity for arrestin-receptor complex than for receptor alone, and only a fraction of the receptors forms such a high agonist affinity complex (HAC) even at saturating concentrations of arrestin (Gurevich et al. (1997) supra). The maximum percentage of the receptor in HAC gives a good estimate of the propensity of a given arrestin protein to bind tightly to the receptor (arrestin competency) Gurevich et al. (1997) supra)). […]

Binder	percentage of receptor in high agonist affinity complex (HAC)
wild type bovine β-arrestin (other, Full-length wild type from construct pBARR; also called wild type β-arrestin; bovine β-arrestin 1A) MGDKGTRVFKKASPNGKLTVYLGKRDFVDHIDLVEPVDGVVLVDPEYLKERRVYVTLTCAFRYGREDLDVLGLTFRKDLFVANVQSFPPAPEDKKPLTRLQERLIKKLGEHAYPFTFEIPPNLPCSVTLQPGPEDTGKACGVDYEVKAFCAENLEEKIHKRNSVRLVIRKVQYAPERPGPQPTAETTRQFLMSDKPLHLEASLDKEIYYHGEPISVNVHVTNNTNKTVKKIKISVRQYADICLFNTAQYKCPVAMEEADDTVAPSSTFCKVYTLTPFLANNREKRGLALDGKLKHEDTNLASSTLLREGANREILGIIVSYKVKVKLVVSRGGLLGDLASSDVAVELPFTLMHPKPKEEPPHREVPEHETPVDTNLIELDTNDDDIVFEDFARQRLKGMKDDKEEEEDGTGSPRLNDR	31%
β-arrestin-(Arg169→Glu) (other, Bovine β-arrestin point mutant made in pBARR) MGDKGTRVFKKASPNGKLTVYLGKRDFVDHIDLVEPVDGVVLVDPEYLKERRVYVTLTCAFRYGREDLDVLGLTFRKDLFVANVQSFPPAPEDKKPLTRLQERLIKKLGEHAYPFTFEIPPNLPCSVTLQPGPEDTGKACGVDYEVKAFCAENLEEKIHKRNSVRLVIEKVQYAPERPGPQPTAETTRQFLMSDKPLHLEASLDKEIYYHGEPISVNVHVTNNTNKTVKKIKISVRQYADICLFNTAQYKCPVAMEEADDTVAPSSTFCKVYTLTPFLANNREKRGLALDGKLKHEDTNLASSTLLREGANREILGIIVSYKVKVKLVVSRGGLLGDLASSDVAVELPFTLMHPKPKEEPPHREVPEHETPVDTNLIELDTNDDDIVFEDFARQRLKGMKDDKEEEEDGTGSPRLNDR	52%
